Assay results reported in patent publication US20040106569.
Marks after values point to notes of the source that are not given here.

Assays:
[1] = tested on: GST-GSK3 fusion protein (Cell Signaling Technology)

| Substance | non-radioactive in vitro kinase assay, phosphorylated substrate detected by Western blot [1] | Activity (phosphorylation of MPB) (myelin basic protein) | radioactive in vitro kinase assay, 32P incorporation by autoradiography (FIG. 11B) (myelin basic protein) |
| --- | --- | --- | --- |
| PKNbeta kinase domain comprising amino acids 535-889 | Only the full length wildtype protein kinase N beta or the kinase domain as defined in example 9 were suitable to phosphorylate the substrate | +* | the full length wildtype protein kinase N beta as well as the kinase domain show activity |
| PKNbeta kinase domain having a mutation at position 588 from lysine to arginine |  | -* |  |
| PKNbeta kinase domain having a mutation at position 588 from lysine to glutamic acid |  | -* |  |
| PKNbeta kinase domain with threonine 718 changed to alanine |  | -* |  |
| PKNbeta kinase domain with threonine 718 changed to aspartic acid |  | -*! |  |
| PKNbeta kinase domain with threonine 718 changed to glutamic acid |  | -*! |  |
